The target of this data set is T1, IFIH1-WT-Flag (UniProt Q8R5F7 1-1025).
T1 sequence: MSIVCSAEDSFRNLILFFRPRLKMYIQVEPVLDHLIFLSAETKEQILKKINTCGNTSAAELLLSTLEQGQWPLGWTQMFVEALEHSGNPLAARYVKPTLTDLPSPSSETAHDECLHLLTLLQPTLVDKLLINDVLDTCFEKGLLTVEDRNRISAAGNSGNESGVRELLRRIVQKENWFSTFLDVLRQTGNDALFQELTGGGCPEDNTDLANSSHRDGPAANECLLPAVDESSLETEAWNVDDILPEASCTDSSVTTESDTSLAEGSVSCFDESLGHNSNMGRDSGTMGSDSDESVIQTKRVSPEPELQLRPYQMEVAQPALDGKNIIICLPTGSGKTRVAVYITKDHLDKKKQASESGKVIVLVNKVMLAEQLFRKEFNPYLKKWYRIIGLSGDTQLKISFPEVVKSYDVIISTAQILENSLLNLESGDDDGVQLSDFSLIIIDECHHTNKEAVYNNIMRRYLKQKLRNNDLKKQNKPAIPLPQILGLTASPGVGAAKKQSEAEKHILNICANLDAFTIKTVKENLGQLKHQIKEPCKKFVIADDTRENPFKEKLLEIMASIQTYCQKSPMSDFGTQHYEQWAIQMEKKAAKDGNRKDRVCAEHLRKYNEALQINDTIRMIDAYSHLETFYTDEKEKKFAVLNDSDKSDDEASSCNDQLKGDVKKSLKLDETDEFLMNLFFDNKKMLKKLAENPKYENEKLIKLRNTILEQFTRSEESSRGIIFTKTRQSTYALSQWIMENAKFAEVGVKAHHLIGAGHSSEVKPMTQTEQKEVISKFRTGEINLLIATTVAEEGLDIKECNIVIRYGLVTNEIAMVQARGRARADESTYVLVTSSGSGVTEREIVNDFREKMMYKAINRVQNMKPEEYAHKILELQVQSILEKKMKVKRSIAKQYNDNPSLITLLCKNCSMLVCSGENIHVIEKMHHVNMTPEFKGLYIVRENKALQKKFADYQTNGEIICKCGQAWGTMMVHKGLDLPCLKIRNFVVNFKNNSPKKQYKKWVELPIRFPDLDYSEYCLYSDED
Put plainly: competition; EMSA, 50 pmol cold RNA vs biotin-IBR1-WT; EMSA: 20 mM HEPES pH 7.5, 150 mM NaCl, 1.5 mM MgCl2, 2 mM DTT, 2 mM ADPCP (so in the source), 10 min at room temperature, BisTris native gel. Particulars: protein: recombinant; tags: Flag; His. A general note: Mobility shift assays separate free from complexed probe on a gel.

B1: IBR1-M2 (ssRNA)
RNA: UGUAUUUUCUCCUUAUAAUCACUCCCUCCCGGGGCAUGUAAUUAAUUUCCUGAUGGAUUACUCACACGGUCUUGAAGAUGCAAUGUCAGCUAUUUAGGCUGUGCUAGGACUCAAUUACAACAACAUAUGCAUUAAGACAGGAACUGGCAAGCCGGGACUACAGCAACUACAGGGCUGGUGCUUCCCAACCGCUGGGCUAUAAUCUAUGAAACUGAGCCGGGAUCCAGCCAAUCAGUUAGCUAGCUCCUCAUAACAGGUCUAACUGGCUCUGGACAGCUAAGGGCUGCGCUGGAAC
As to B1, the binding result is listed as “no binding”.
GUUCCAGCGCAGCCCUUA (ssRNA) [IBR1-M3]: the binding result is recorded as “no binding”.

The values are drawn from paper PMC11420289, “IBR1, a novel endogenous IFIH1‐binding dsRNA, governs IFIH1 activation and M1 macrophage polarisation in ARDS”.
